From publication PMC7865074, “Role of PDZ-binding motif from West Nile virus NS5 protein on viral replication” (Scientific Reports, 2021) come the findings set out here.

T1: biotinylated WNV NS5 PBM peptide (West Nile virus, also: biotinyl group, end not given here)
T1 construct: bait of the holdup assay; also called 13-mer peptide; source: synthetic peptide (solid phase, Fmoc; Proteogenix)
T1 peptide: RYEDTTLVEDTVL

B1: Connector enhancer of kinase suppressor of ras 3, PDZ domain (holdup construct) (domain or fragment, human, UniProt Q6P9H4 211-293, looked up)
chain: EVHLPNIKPGEGLGMYIKSTYDGLHVITGTTENSPADRSQKIHAGDEVIQVNQQTVVGWQLKNLVKKLRENPTGVVLLLKKRP
notes: also called CNKSR3; source: E. coli, PDZome V.2 library, high-throughput expression
B2: SH3 and multiple ankyrin repeat domains protein 3, PDZ domain (holdup construct) (domain or fragment, human, UniProt Q9BYB0 646-740, looked up)
chain: VAVLQKRDHEGFGFVLRGAKAETPIEEFTPTPAFPALQYLESVDVEGVAWRAGLRTGDFLIEVNGVNVVKVGHKQVVALIRQGGNRLVMKVVSVT
notes: also called SHANK3; source: E. coli, PDZome V.2 library, high-throughput expression
B3: Na(+)/H(+) exchange regulatory cofactor NHE-RF2, PDZ domain 1 (holdup construct) (domain or fragment, human, UniProt Q15599 11-90, looked up)
chain: LCRLVRGEQGYGFHLHGEKGRRGQFIRRVEPGSPAEAAALRAGDRLVEVNGVNVEGETHHQVVQRIKAVEGQTRLLVVDQ
notes: also called NHERF2_1; source: E. coli, PDZome V.2 library, high-throughput expression
B4: SH3 and multiple ankyrin repeat domains protein 1, PDZ domain (holdup construct) (domain or fragment, human, UniProt Q9Y566 663-757, looked up)
chain: TVLLQKKDSEGFGFVLRGAKAQTPIEEFTPTPAFPALQYLESVDEGGVAWRAGLRMGDFLIEVNGQNVVKVGHRQVVNMIRQGGNTLMVKVVMVT
notes: also called SHANK1; source: E. coli, PDZome V.2 library, high-throughput expression
B5: Beta-1-syntrophin, PDZ domain (holdup construct) (domain or fragment, human, UniProt Q13884 112-195, looked up)
chain: GVKVLKQELGGLGISIKGGKENKMPILISKIFKGLAADQTQALYVGDAILSVNGADLRDATHDEAVQALKRAGKEVLLEVKYMR
notes: also called SNTB1; source: E. coli, PDZome V.2 library, high-throughput expression
B6: Na(+)/H(+) exchange regulatory cofactor NHE-RF1, PDZ domain 1 (holdup construct) (domain or fragment, human, UniProt O14745 14-94, looked up)
chain: LCCLEKGPNGYGFHLHGEKGKLGQYIRLVEPGSPAEKAGLLAGDRLVEVNGENVEKETHQQVVSRIRAALNAVRLLVVDPE
notes: source: E. coli, PDZome V.2 library, high-throughput expression
B7: Na(+)/H(+) exchange regulatory cofactor NHE-RF2, PDZ domain 2 (holdup construct) (domain or fragment, human, UniProt Q15599 150-230, looked up)
chain: RLCHLRKGPQGYGFNLHSDKSRPGQYIRSVDPGSPAARSGLRAQDRLIEVNGQNVEGLRHAEVVASIKAREDEARLLVVDP
notes: also called NHERF2_2; source: E. coli, PDZome V.2 library, high-throughput expression
B8: T-lymphoma invasion and metastasis-inducing protein 2, PDZ domain (holdup construct) (domain or fragment, human, UniProt Q8IVF5 890-976, looked up)
chain: DVQLTKTGSVCDFGFAVTAQVDERQHLSRIFISDVLPDGLAYGEGLRKGNEIMTLNGEAVSDLDLKQMEALFSEKSVGLTLIARPPD
notes: also called TIAM2; source: E. coli, PDZome V.2 library, high-throughput expression
B9: Partitioning defective 3 homolog B, PDZ domain 1 (holdup construct) (domain or fragment, human, UniProt Q8TEW8 201-289, looked up)
chain: TRTVEISGEGGPLGIHVVPFFSSLSGRILGLFIRGIEDNSRSKREGLFHENECIVKINNVDLVDKTFAQAQDVFRQAMKSPSVLLHVLP
notes: also called PARD3B_1; source: E. coli, PDZome V.2 library, high-throughput expression
B10: FERM and PDZ domain-containing protein 4, PDZ domain (holdup construct) (domain or fragment, human, UniProt Q14CM0 78-155, looked up)
chain: KVEMRRDPVLGFGFVAGSEKPVVVRSVTPGGPSEGKLIPGDQIVMINDEPVSAAPRERVIDLVRSCKESILLTVIQPY
notes: also called FRMPD4; source: E. coli, PDZome V.2 library, high-throughput expression
B11: Zona Occludens 3; Tight Junction Protein 3, PDZ domain 2 (holdup construct) (domain or fragment, human, UniProt O95049 195-272, looked up)
chain: SVLVKRRDSEEFGVKLGSQIFIKHITDSGLAARHRGLQEGDLILQINGVSSQNLSLNDTRRLIEKSEGKLSLLVLRDR
notes: also called TJP3_2; source: E. coli, PDZome V.2 library, high-throughput expression
B12: Rho guanine nucleotide exchange factor 12, PDZ domain (holdup construct) (domain or fragment, human, UniProt Q9NZN5 72-151, looked up)
chain: CVIIQKDDNGFGLTVSGDNPVFVQSVKEDGAAMRAGVQTGDRIIKVNGTLVTHSNHLEVVKLIKSGSYVALTVQGRPPGS
notes: also called ARHGEF12; source: E. coli, PDZome V.2 library, high-throughput expression
B13: Microtubule-associated serine/threonine-protein kinase 2, PDZ domain (holdup construct) (domain or fragment, human, UniProt Q6P0Q8 1104-1192, looked up)
chain: PIIIHRAGKKYGFTLRAIRVYMGDSDVYTVHHMVWHVEDGGPASEAGLRQGDLITHVNGEPVHGLVHTEVVELILKSGNKVAISTTPLE
notes: also called MAST2; source: E. coli, PDZome V.2 library, high-throughput expression
B14: PDZ and LIM domain protein 1, PDZ domain (holdup construct) (domain or fragment, human, UniProt O00151 3-85, looked up)
chain: TQQIDLQGPGPWGFRLVGGKDFEQPLAISRVTPGSKAALANLCIGDVITAIDGENTSNMTHLEAQNRIKGCTDNLTLTVARSE
notes: also called PDLIM1; source: E. coli, PDZome V.2 library, high-throughput expression
B15: Partitioning defective 3 homolog, PDZ domain 3 (holdup construct) (domain or fragment, human, UniProt Q8TEW0 590-677, looked up)
chain: EVPLNDSGSAGLGVSVKGNRSKENHADLGIFVKSIINGGAASKDGRLRVNDQLIAVNGESLLGKTNQDAMETLRRSMSTEGNKRGMIQ
notes: also called PARD3_3; source: E. coli, PDZome V.2 library, high-throughput expression
B16: Disks large homolog 1, PDZ domain 2 (holdup construct) (domain or fragment, human, UniProt Q12959 319-405, looked up)
chain: EIKLIKGPKGLGFSIAGGVGNQHIPGDNSIYVTKIIEGGAAHKDGKLQIGDKLLAVNNVCLEEVTHEEAVTALKNTSDFVYLKVAKP
notes: also called DLG1_2; source: E. coli, PDZome V.2 library, high-throughput expression
B17: Protein piccolo, PDZ domain (holdup construct) (domain or fragment, human, UniProt Q9Y6V0 4496-4590, looked up)
chain: RIKITRDSKDHTVSGNGLGIRIVGGKEIPGHSGEIGAYIAKILPGGSAEQTGKLMEGMQVLEWNGIPLTSKTYEEVQSIISQQSGEAEICVRLDL
notes: also called PCLO; source: E. coli, PDZome V.2 library, high-throughput expression

Ends that are not written are not given here. Where only a bound is given, the exact number is not on record here.

This experiment has as its target T1, biotinylated WNV NS5 PBM peptide. The experiment is described as follows: holdup assay (automated high-throughput chromatography); biotinylated NS5 PBM peptide as bait against 259 human PDZ domains expressed in E. coli; read-out binding intensity (BI), mean of replicates; BI threshold 0.2 for a significant interaction.
For the molecule B1, the “BI (holdup binding intensity)” value is < 0.15. As for B2, the figure is 0.39; as for B3, 0.21; as for B4, 0.39. As for B5, the figure is 0.22; as for B6, 0.68; as for B7, 0.74. Regarding B8, the “BI (holdup binding intensity)” value was < 0.15. The same measure for B9: 0.48; for B10: 0.32; for B11: 0.23. On to B12, for which the “BI (holdup binding intensity)” value is 0.25. In the case of B13, the “BI (holdup binding intensity)” value was found to be 0.72. The same measure for B14: < 0.15; for B15: 0.29.

Consider B16, for which the “BI (holdup binding intensity)” value was 0.22. For B17, the “BI (holdup binding intensity)” value is < 0.15.
